# Read-outs that look alike come from different tables or passages of the source.
# T1: VEGF (Homo sapiens, UniProt P15692)
# T1 sequence (P15692 27-191 isoform P15692-4): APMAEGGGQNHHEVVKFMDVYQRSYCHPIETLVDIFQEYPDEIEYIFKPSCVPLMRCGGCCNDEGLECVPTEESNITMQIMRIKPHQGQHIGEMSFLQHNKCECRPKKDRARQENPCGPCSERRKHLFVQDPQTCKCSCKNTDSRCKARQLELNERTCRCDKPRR
# B1: FNIII12-V15: composite heparinII-binding and variably-spliced IIICS domains of FN (protein)
# chain: MGSAIPAPTDLKFTQVTPTSLSAQWTPPNVQLTGYRVRVTPKEKTGPMKEINLAPDSSSVVVSGLMVATKYEVSVYALKDTLTSRPAQGVVTTLENVSPPRRARVTDATETTITISWRTKTETITGFQVDAVPANGQTPIQRTIKPDVRSYTITGLQPGTDYKIYLYTLNDNARSSPVVIDASTAIDAPSNLRFLATTPNSLLVSWQPPRARITGYIIKYEKPGSPPREVVPRPRPGVTEATITGLEPGTEYTIYVIALKNNQKSEPLIGRKKTDELPQLVTLPHPNLHGPEILDVPSTVQKTPFVTHPGYDTGNGIQLPGTSGQQPSVGQQMIFEEHGFRRTTPPTTATPIRHRPRPYPPNVGEEIQIGHIPREDVDYHLYPHGPGLNPNASTGQEALSQTTISWAPFQDTSEYIISCHPVGTDEEPLQFRVPGTSTSATLTGLTRGATYNVIVEALKDQQRHKVREEVVTVGNSVNEGTSHHHHHHC
# B2: FNIII12-15: heparin II binding domain of FN (protein)
# chain: MGSTIPAPTDLKFTQVTPTSLSAQWTPPNVQLTGYRVRVTPKEKTGPMKEINLAPDSSSVVVSGLMVATKYEVSVYALKDTLTSRPAQGVVTTLENVSPPRRARVTDATETTITISWRTKTETITGFQVDAVPANGQTPIQRTIKPDVRSYTITGLQPGTDYKIYLYTLNDNARSSPVVIDASTAIDAPSNLRFLATTPNSLLVSWQPPRARITGYIIKYEKPGSPPREVVPRPRPGVTEATITGLEPGTEYTIYVIALKNNQKSEPLIGRKKTGQEALSQTTISWAPFQDTSEYIISCHPVGTDEEPLQFRVPGTSTSATLTGLTRGATYNVIVEALKDQQRHKVREEVVTVGNSVNEGTSHHHHHHC
# B3: FNIII12-14: recombinant heparinII-binding domain of FN, type III repeats 12-14 (protein)
# chain: MGSAIPAPTDLKFTQVTPTSLSAQWTPPNVQLTGYRVRVTPKEKTGPMKEINLAPDSSSVVVSGLMVATKYEVSVYALKDTLTSRPAQGVVTTLENVSPPRRARVTDATETTITISWRTKTETITGFQVDAVPANGQTPIQRTIKPDVRSYTITGLQPGTDYKIYLYTLNDNARSSPVVIDASTAIDAPSNLRFLATTPNSLLVSWQPPRARITGYIIKYEKPGSPPREVVPRPRPGVTEATITGLEPGTEYTIYVIALKNNQKSEPLIGRKKTTSHHHHHHC
# B4: IIICS: variably-spliced IIICS domain of FN (protein)
# chain: MGSDELPQLVTLPHPNLHGPEILDVPSTVQKTPFVTHPGYDTGNGIQLPGTSGQQPSVGQQMIFEEHGFRRTTPPTTATPIRHRPRPYPPNVGEEIQIGHIPREDVDYHLYPHGPGLNPNASTTSHHHHHHC
# B5: FNIII1-7: FN domain, type III repeats 1-7 (protein)
# chain: MGSGPVEVFITETPSQPNSHPIQWNAPQPSHISKYILRWRPKNSVGRWKEATIPGHLNSYTIKGLKPGVVYEGQLISIQQYGHQEVTRFDFTTTSTSTPVTSNTVTGETTPFSPLVATSESVTEITASSFVVSWVSASDTVSGFRVEYELSEEGDEPQYLDLPSTATSVNIPDLLPGRKYIVNVYQISEDGEQSLILSTSQTTAPDAPPDTTVDQVDDTSIVVRWSRPQAPITGYRIVYSPSVEGSSTELNLPETANSVTLSDLQPGVQYNITIYAVEENQESTPVVIQQETTGTPRSDTVPSPRDLQFVEVTDVKVTIMWTPPESAVTGYRVDVIPVNLPGEHGQRLPISRNTFAEVTGLSPGVTYYFKVFAVSHGRESKPLTAQQTTKLDAPTNLQFVNETDSTVLVRWTPPRAQITGYRLTVGLTRRGQPRQYNVGPSVSKYPLRNLQPASEYTVSLVAIKGNQESPKATGVFTTLQPGSSIPPYNTEVTETTIVITWTPAPRIGFKLGVRPSQGGEAPREVTSDSGSIVVSGLTPGVEYVYTIQVLRDGQERDAPIVNKVVTPLSPPTNLHLEANPDTGVLTVSWERSTTPDITGYRITTTPTNGQQGNSLEEVVHADQSSCTFDNLSPGLEYNVSVYTVKDDKESVPISDTIIPETSHHHHHHC
# B6: FNIII3-6: recombinant FN domain, type III repeats 3-6 (protein)
# chain: MGSAPPDTTVDQVDDTSIVVRWSRPQAPITGYRIVYSPSVEGSSTELNLPETANSVTLSDLQPGVQYNITIYAVEENQESTPVVIQQETTGTPRSDTVPSPRDLQFVEVTDVKVTIMWTPPESAVTGYRVDVIPVNLPGEHGQRLPISRNTFAEVTGLSPGVTYYFKVFAVSHGRESKPLTAQQTTKLDAPTNLQFVNETDSTVLVRWTPPRAQITGYRLTVGLTRRGQPRQYNVGPSVSKYPLRNLQPASEYTVSLVAIKGNQESPKATGVFTTLQPGSSIPPYNTEVTETTIVITWTPAPRIGFKLGVRPSQGGEAPREVTSDSGSIVVSGLTPGVEYVYTIQVLRDGQERDAPIVNKVVTPLSTSHHHHHHC
# B7: FNIII12-13: FN domain, type III repeats 12-13 (protein)
# chain: MGSAIPAPTDLKFTQVTPTSLSAQWTPPNVQLTGYRVRVTPKEKTGPMKEINLAPDSSSVVVSGLMVATKYEVSVYALKDTLTSRPAQGVVTTLENVSPPRRARVTDATETTITISWRTKTETITGFQVDAVPANGQTPIQRTIKPDVRSYTITGLQPGTDYKIYLYTLNDNARSSPVVIDASTTSHHHHHHC
# Assays:
# [1] = test system: GFs (TGF-β1, PDGF-BB, VEGF, FGF-2); test: Binding of growth factors to FN domains, GFs reported together
# VEGF = target: T1, VEGF; test: Surface plasmon resonance, VEGF; assay type: binding; conditions: plasmon resonance; read-out: KD, VEGF binding
# bFGF (FGF-2) = bFGF (FGF-2) (Homo sapiens, UniProt P09038); test: Equilibrium binding of bFGF (FGF-2) to FN and FN domains; conditions: method not restated (equilibrium and kinetic binding performed); read-out: KD, bFGF binding
# Method: [The source words this procedure for another target and reports this target under the same test.] (§1) 20 μl of 50% v/v peptide-agarose beads are incubated with 125I-PDGF in 0.1 ml of binding buffer (DMEM+2% BSA) at room temperature for 2 hours with rotation. Beads are washed 6 times with DMEM. Bound PDGF-BB are released by the addition of 100 μl of 1M NaOH. The radioactivity bound to FN-beads are quantified in a γ-counter. Nonspecific binding are established from ^125I-PDGF binding to nonconjugated beads, then specific binding derived by subtraction of nonspecific binding from total binding. Binding constants (KD) and Bmax are determined from nonlinear regression of specific binding curves using Prism 4 from GraphPad Software, San Diego, Calif. “Scatchard plots” are derived from the KD and Bmax obtained with non linear regression analysis.
# FGF-2 = FGF-2 (Homo sapiens, UniProt P09038); test: Surface plasmon resonance, FGF-2; conditions: read-out: KD, FGF-2 binding
# Method: [The source words this procedure for another target and reports this target under the same test.] In the Biacore2000 system, binding constants from kinetic data are determined by passing varying concentrations of FN peptides (analytes) over chip surfaces which are coupled with PDGF-BB (ligand), respectively. All kinetic experiments are carried out at 20° C. at a flow rate of 20 μl/min. For mass transport experiments, each analyte is injected at a fixed concentration and run at flow rates ranging from 5 to 75 μl/min. All analytes are injected over PDGF-BB ligand surfaces as well as over a control surface for 120 s, followed by 300 s of dissociation in running buffer. Regeneration of the sensor chip for subsequent injections is accomplished by pulse of 0.1% SDS. Mass transport experiments have detected little difference in response at different flow rates thus validating data from kinetic experiments. Sensorgrams are prepared and globally fitted using nonlinear least-squares analysis and numerical integration of the differential rate equations with the Biacore Bioevaluation software. […] Each data set, which consists of a series of sensorgrams from injections of different concentration of analyte over the same surface, are analyzed using kinetic models from Biaevaluation software.
# PDGF-BB [2] = target: T2, PDGF-BB (Homo sapiens, UniProt P01127); test: Surface plasmon resonance (Biacore), PDGF-BB; assay type: binding
# Method: (§2) In the Biacore2000 system, binding constants from kinetic data are determined by passing varying concentrations of FN peptides (analytes) over chip surfaces which are coupled with PDGF-BB (ligand), respectively. All kinetic experiments are carried out at 20° C. at a flow rate of 20 μl/min. For mass transport experiments, each analyte is injected at a fixed concentration and run at flow rates ranging from 5 to 75 μl/min. All analytes are injected over PDGF-BB ligand surfaces as well as over a control surface for 120 s, followed by 300 s of dissociation in running buffer. Regeneration of the sensor chip for subsequent injections is accomplished by pulse of 0.1% SDS. Mass transport experiments have detected little difference in response at different flow rates thus validating data from kinetic experiments. Sensorgrams are prepared and globally fitted using nonlinear least-squares analysis and numerical integration of the differential rate equations with the Biacore Bioevaluation software. Each sensogram generated using a control surface is substracted from the corresponding experimental sensorgrams, and the resulting curves are transformed to concentration units using the molecular mass of the injected species, the equivalence of 1000 resonance units (RU) per 1 ng/mm^2, and a matrix thickness of 100 nm. Each data set, which consists of a series of sensorgrams from injections of different concentration of analyte over the same surface, are analyzed using kinetic models from Biaevaluation software.
# FN-null cells = test: FN-null cell survival on surfaces coated with FN domains; assay type: cell-based, mouse; conditions: for FN-null cell survival / proliferation: FNIII8-11 ± named FN domain, or named FN construct, PDGF-BB added 2 hrs after plating; for FN-null cell survival with PDGF at 3 days: surface precoated with 0.15 μM GST-tagged FNIII8-11 ± named FN domain, or named FN construct, PDGF-BB added 1 day after plating
# Method: To further investigate the response of cells to PDGF-BB bound to FN domains, we investigated the survival response of mouse fibroblasts null for FN (FN−/−), or “FN-null”. First we determined the response of FN-null cells to PDGF-BB in the absence of serum or other sources of exogenous FN. […] Next, FN-null cells were plated on tissue culture plastic surfaces precoated with 0.15 μM GST-tagged FNIII8-11±other FN domains known to have PDGF-BB binding activity and then PDGF-BB added 1 day later. […] Importantly, differential response of FN-null cells, plated on different FN domains, to PDGF-BB was not secondary to differences in attachment as judged by cell counts two hours after plating. The FNIII8-11 central cell binding domain was present in all circumstances.
# PDGF-BB [3] = target: T2, PDGF-BB; test: Equilibrium binding of 125I-PDGF-BB to FN, FN domains and peptides; conditions: for Kd: equilibrium binding
# Method: as §1
# TGF-β1 [4] = target: T3, TGF-β1 (Homo sapiens, UniProt P01137); test: Equilibrium binding of TGF-β1 to FN, FN domains and peptides
# Method: [The source words this procedure for another target and reports this target under the same test.] as §1
# TGF-β1 [5] = target: T3, TGF-β1; test: Surface plasmon resonance, TGF-β1; assay type: binding
# Method: [The source words this procedure for another target and reports this target under the same test.] as §2
# EGF = EGF (Homo sapiens, UniProt P01133); test: Binding of EGF to FN, FN domains and peptides
# [6] = test system: GFs (TGF-β1, PDGF-BB, VEGF, FGF-2); test: Binding of growth factors to FN domains, GFs reported together; remark: listed apart in the source
# Method: as §1
# In the Biacore2000 system, binding constants from kinetic data are determined by passing varying concentrations of FN peptides (analytes) over chip surfaces which are coupled with PDGF-BB (ligand), respectively. All kinetic experiments are carried out at 20° C. at a flow rate of 20 μl/min. […] Mass transport experiments have detected little difference in response at different flow rates thus validating data from kinetic experiments. […] Each data set, which consists of a series of sensorgrams from injections of different concentration of analyte over the same surface, are analyzed using kinetic models from Biaevaluation software.
# [7] = plasmon resonance, kinetic binding
# [8] = method not restated, read-out: KD, TGF-β1 binding
# [9] = method not restated, read-out: KD, PDGF-BB binding
# [10] = method not restated (equilibrium and kinetic binding performed)
# bFGF (FGF-2), sequence (P09038 143-288): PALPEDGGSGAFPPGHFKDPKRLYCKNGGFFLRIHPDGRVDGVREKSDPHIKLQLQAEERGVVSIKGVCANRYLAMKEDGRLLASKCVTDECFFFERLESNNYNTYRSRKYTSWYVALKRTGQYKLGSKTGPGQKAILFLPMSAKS
# T2 sequence (P01127 82-190 limits assumed): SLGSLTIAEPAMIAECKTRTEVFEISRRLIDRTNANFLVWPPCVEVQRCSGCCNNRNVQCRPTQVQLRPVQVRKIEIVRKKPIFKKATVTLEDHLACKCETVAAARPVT
# T3 sequence (P01137 279-390 limits assumed): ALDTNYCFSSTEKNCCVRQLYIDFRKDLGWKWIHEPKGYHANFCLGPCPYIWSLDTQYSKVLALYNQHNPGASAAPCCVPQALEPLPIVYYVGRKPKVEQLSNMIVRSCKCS
# FGF-2, sequence (P09038 143-288): as the sequence (P09038 143-288) above
# EGF, sequence (P01133 971-1023 limits assumed, species assumed): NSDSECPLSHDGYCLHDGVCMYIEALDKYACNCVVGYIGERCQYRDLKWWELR
molecule,measurement,setting,value
B1,GF binding with up to 2.5 M NaCl or pH lowered to about 2.0,[1],failed to demonstrate any diminution
same,Kd,VEGF,0.6 nM
same,Kd,bFGF (FGF-2),37 nM
same,Kd,FGF-2; plasmon resonance,37 nM
same,Kd,PDGF-BB [2]; [7],17 nM
same,FN-null cell survival / proliferation,FN-null cells,enhance survival
same,Kd,PDGF-BB [3],21 nM
same,Kd,TGF-β1 [4]; equilibrium binding,97 nM
B2,Kd,TGF-β1 [5]; [8],16 nM
same,Kd,bFGF (FGF-2),130 nM
same,Kd,FGF-2; method not restated,170 nM
same,Kd,PDGF-BB [2]; [9],6.8 nM
same,Kd,PDGF-BB [3],6.8 nM
same,Kd,TGF-β1 [4]; [10],16 nM
B3,Kd,TGF-β1 [5]; [8],7.6 nM
same,Kd,bFGF (FGF-2),1.9 nM
same,Kd,PDGF-BB [2]; [9],55 nM
same,FN-null cell survival / proliferation,FN-null cells,enhance survival
same,FN-null cell survival with PDGF at 3 days,FN-null cells,increased survival
same,Kd,PDGF-BB [3],35 nM
same,Kd,TGF-β1 [4]; [10],7.6 nM
B4,"EGF binding, in words",EGF,failed to bind
same,FN-null cell survival / proliferation,FN-null cells,enhance survival
same,FN-null cell survival with PDGF at 3 days,FN-null cells,increased survival
same,Kd,PDGF-BB [3],350 nM
same,Kd,TGF-β1 [4]; [10],74 nM
B5,Kd,TGF-β1 [5]; [7],18 nM
same,"Binding of the GFs tested, in words",[6],all four GFs bound
same,Kd,bFGF (FGF-2),4.1 nM
same,Kd,PDGF-BB [2]; [7],100 nM
same,Kd,PDGF-BB [3],75 nM
same,Kd,TGF-β1 [4]; equilibrium binding,17 nM
B6,"Binding of the GFs tested, in words",[6],In no case did any GF bind
same,"PDGF-BB binding, in words",PDGF-BB [2]; surface resonance,no binding
same,"FN-null cell survival / proliferation, summary statement","FN-null cells; cells plated on named FN construct, or on FNIII8-11 ± named domain",did not support cell survival
same,"PDGF-BB binding, in words",PDGF-BB [3]; equilibrium binding and/or plasmon resonance,did not
B7,Kd,PDGF-BB [3],75 nM
